Experiments:
Assay in all cases: cell-based or functional assay
[1] = biological target: T1, Aurora-A (h) (human (h), UniProt O14965 1-403)
T1 sequence (looked up): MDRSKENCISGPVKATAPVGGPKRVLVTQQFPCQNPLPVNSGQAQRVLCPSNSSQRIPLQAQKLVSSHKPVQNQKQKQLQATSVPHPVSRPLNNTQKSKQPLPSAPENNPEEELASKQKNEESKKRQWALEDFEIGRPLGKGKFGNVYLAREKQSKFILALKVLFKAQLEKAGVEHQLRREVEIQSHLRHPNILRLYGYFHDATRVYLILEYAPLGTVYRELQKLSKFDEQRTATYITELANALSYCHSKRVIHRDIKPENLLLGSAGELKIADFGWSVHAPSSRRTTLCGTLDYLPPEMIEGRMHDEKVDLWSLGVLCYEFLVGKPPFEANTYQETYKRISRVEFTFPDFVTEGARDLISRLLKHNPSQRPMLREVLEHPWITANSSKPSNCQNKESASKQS

[2] = biological target: CaMKI (h) (human (h), UniProt Q14012 1-370, limits assumed)
[3] = biological target: T2, CHK1 (h) (human (h), UniProt O14757 1-476)
T2 sequence (looked up): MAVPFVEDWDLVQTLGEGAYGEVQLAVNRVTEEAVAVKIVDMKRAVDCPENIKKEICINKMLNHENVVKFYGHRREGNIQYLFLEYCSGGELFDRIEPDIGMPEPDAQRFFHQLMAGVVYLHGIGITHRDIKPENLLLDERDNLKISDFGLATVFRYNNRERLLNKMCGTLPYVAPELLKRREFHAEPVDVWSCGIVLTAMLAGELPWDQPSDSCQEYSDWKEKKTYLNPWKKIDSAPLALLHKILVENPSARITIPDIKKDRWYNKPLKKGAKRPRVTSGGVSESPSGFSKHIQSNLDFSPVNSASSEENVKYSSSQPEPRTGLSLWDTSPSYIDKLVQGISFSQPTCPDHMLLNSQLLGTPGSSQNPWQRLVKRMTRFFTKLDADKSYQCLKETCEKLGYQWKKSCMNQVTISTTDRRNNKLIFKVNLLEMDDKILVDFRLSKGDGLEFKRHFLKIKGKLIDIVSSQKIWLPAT

[4] = biological target: T3, DYRK2 (h) (human (h), UniProt Q92630 1-601, limits assumed)
T3 sequence (looked up): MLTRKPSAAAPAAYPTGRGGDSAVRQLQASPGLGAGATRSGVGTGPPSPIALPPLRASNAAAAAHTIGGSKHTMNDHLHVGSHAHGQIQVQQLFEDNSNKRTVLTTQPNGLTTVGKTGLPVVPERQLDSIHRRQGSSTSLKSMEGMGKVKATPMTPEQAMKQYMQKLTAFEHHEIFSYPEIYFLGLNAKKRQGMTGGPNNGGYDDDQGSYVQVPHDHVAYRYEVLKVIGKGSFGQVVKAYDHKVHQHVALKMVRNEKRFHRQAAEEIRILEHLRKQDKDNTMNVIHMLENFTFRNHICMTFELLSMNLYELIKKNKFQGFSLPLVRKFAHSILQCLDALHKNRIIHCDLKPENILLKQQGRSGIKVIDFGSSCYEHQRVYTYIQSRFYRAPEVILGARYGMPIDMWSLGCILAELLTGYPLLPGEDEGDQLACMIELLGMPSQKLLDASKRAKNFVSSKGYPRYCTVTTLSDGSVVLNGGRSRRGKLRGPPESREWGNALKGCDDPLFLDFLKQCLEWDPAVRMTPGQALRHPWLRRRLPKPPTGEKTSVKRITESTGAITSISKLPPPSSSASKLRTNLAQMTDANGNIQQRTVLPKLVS

[5] = biological target: EGFR (h) (human (h), UniProt P00533 696-1210, limits assumed)
[6] = biological target: FGFR1 (h) (human (h), UniProt P11362 456-765, limits assumed)
[7] = biological target: MEKI (h) (human (h), UniProt Q02750 1-393)
[8] = biological target: MLCK (h) (human (h))
[9] = biological target: MSK1 (h) (human (h), UniProt O75582 1-802)
[10] = biological target: T4, PhKγ2 (h) (human (h), UniProt P15735 1-406)
T4 sequence (looked up): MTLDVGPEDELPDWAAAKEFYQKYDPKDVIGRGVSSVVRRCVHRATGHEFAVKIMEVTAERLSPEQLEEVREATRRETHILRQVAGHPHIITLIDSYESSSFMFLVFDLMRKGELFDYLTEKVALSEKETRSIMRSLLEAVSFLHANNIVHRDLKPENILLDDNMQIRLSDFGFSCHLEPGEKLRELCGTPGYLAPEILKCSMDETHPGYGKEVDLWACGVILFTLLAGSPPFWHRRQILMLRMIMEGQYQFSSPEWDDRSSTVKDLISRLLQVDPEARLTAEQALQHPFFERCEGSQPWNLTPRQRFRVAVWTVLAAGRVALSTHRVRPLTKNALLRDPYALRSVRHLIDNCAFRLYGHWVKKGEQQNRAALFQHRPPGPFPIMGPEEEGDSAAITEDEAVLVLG

[11] = biological target: Tie2 (h) (human (h), UniProt Q02763 771-1124, limits assumed)
[12] = biological target: TrkA (h) (human (h), UniProt P04629 441-796, limits assumed)
TrkA (h), sequence (P04629 441-796 limits assumed): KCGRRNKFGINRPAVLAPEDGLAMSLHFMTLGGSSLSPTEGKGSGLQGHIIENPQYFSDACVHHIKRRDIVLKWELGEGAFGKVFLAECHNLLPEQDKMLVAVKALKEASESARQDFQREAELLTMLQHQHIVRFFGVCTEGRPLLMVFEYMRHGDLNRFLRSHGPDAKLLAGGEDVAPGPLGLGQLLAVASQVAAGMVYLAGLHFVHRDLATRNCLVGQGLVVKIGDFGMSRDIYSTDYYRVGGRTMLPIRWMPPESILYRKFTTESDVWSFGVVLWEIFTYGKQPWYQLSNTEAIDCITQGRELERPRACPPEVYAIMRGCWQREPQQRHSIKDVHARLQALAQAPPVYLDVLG

MSK1 (h), sequence (O75582 whole entry): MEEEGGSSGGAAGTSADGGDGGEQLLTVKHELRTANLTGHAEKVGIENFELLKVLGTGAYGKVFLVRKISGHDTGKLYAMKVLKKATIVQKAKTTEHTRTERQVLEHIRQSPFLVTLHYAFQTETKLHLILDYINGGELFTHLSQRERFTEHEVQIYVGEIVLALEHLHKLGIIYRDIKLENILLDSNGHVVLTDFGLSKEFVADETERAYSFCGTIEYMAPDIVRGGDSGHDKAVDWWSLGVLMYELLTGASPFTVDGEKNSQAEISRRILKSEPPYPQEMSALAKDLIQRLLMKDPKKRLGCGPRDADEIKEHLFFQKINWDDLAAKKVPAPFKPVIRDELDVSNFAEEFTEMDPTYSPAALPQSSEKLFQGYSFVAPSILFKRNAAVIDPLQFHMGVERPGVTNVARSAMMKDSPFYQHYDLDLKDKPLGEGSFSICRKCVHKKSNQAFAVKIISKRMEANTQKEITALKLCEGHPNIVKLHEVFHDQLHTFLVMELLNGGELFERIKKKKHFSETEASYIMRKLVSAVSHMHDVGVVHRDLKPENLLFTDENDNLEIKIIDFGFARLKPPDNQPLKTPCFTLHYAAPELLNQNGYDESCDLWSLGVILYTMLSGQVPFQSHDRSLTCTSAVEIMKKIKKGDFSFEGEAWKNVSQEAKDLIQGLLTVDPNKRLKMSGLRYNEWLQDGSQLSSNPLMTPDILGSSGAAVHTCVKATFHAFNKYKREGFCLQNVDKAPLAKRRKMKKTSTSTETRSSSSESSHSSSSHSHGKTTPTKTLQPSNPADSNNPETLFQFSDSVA
FGFR1 (h), sequence (P11362 456-765 limits assumed): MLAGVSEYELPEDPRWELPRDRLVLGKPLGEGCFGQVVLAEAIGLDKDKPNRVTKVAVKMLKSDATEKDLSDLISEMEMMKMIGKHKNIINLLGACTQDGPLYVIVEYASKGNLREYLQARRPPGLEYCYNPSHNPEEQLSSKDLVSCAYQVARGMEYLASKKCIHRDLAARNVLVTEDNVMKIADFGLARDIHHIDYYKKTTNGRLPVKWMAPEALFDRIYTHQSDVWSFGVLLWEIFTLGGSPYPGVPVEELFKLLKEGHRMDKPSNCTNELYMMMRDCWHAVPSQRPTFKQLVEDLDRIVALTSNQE
Tie2 (h), sequence (Q02763 771-1124 limits assumed): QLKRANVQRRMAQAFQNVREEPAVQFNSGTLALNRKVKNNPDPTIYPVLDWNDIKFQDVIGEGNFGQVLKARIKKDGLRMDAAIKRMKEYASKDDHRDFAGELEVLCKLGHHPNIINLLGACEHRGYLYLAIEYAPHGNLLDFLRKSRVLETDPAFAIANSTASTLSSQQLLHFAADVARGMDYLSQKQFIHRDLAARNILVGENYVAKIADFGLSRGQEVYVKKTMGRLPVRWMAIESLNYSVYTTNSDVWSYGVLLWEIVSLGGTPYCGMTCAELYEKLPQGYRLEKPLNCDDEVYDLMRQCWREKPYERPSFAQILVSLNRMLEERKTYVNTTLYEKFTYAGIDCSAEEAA
CaMKI (h), sequence (Q14012 whole entry): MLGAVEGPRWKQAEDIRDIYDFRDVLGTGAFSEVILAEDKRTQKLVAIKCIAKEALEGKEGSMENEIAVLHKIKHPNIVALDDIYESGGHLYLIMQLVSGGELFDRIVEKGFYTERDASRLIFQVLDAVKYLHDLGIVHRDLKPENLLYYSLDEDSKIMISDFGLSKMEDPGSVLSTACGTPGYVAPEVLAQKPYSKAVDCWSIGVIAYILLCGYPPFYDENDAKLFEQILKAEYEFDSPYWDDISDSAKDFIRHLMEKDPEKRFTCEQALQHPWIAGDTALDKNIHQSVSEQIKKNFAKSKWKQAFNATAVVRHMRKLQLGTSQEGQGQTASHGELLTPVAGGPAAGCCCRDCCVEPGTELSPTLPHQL

Question: With KAFAKLAARLYRKALARQLGVAA as the binder, how does the “Profile-1 @ = 100 µm (kinase profiler assay)” value (from here on “Profile-1 @ = 100 µm”) [1] read?
Answer: Its value is 60.

Question: What about the “Profile-1 @ = 100 µm” value [2] of the same binder?
Answer: Its value is 0.

Question: What about the “Profile-1 @ = 100 µm” value [3] of the same binder?
Answer: The value was 68.

Question: What about the “Profile-1 @ = 100 µm” value [4] of the same binder?
Answer: Its value is -10.

Question: What about the “Profile-1 @ = 100 µm” value [5] of the same binder?
Answer: The value was 16.

Question: What about the “Profile-1 @ = 100 µm” value [6] of the same binder?
Answer: The value was 35.

Question: And the “Profile-1 @ = 100 µm” value [7]?
Answer: The value was 66.

Question: And the “Profile-1 @ = 100 µm” value [8]?
Answer: Its value is 2.

Question: And the “Profile-1 @ = 100 µm” value [9]?
Answer: The value was 13.

Question: And the “Profile-1 @ = 100 µm” value [10]?
Answer: The value was 27.

Question: And the “Profile-1 @ = 100 µm” value [11]?
Answer: Its value is 8.

Question: What about the “Profile-1 @ = 100 µm” value [12] of the same binder?
Answer: The value was 16.

— patent publication US20090149389A1 (PURDUE RESEARCH FOUNDATION, published 2009)
